{"source": "patent US20220332804A1", "about": "(CSL INNOVATION, published 2022)", "experiment_in_all_cases": "SPR, antibody captured, C2 as analyte;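 further: biacore at 37 °C, anti-C2 mAbs held by immobilised goat anti-human IgG, C2 alanine or serine mutants injected, double-referenced sensorgrams fitted to a 1:1 kinetic or steady-state model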", "key": {"[1]": {"target": "T1, human C2 R493A (human, UniProt P06681 21-752)", "T1 sequence": "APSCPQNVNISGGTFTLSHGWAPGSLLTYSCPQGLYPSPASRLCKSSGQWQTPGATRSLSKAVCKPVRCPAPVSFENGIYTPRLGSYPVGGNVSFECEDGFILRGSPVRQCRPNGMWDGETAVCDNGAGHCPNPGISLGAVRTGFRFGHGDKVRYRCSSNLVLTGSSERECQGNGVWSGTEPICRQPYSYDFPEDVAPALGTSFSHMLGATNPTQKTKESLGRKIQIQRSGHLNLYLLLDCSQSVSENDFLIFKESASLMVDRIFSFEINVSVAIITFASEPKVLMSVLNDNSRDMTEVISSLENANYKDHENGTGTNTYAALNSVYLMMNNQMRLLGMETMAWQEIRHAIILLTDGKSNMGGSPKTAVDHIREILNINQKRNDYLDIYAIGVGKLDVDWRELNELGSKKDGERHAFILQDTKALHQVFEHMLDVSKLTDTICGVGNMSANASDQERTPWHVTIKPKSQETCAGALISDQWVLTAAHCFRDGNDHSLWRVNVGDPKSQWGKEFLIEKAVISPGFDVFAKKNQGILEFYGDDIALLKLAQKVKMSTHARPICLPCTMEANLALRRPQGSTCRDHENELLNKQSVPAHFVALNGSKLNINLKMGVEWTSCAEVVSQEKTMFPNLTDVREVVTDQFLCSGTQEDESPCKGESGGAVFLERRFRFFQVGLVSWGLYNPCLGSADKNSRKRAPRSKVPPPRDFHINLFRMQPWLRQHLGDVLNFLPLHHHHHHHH"}, "[2]": {"target": "T2, human C2 N268A (human, UniProt P06681 21-752)", "T2 sequence": "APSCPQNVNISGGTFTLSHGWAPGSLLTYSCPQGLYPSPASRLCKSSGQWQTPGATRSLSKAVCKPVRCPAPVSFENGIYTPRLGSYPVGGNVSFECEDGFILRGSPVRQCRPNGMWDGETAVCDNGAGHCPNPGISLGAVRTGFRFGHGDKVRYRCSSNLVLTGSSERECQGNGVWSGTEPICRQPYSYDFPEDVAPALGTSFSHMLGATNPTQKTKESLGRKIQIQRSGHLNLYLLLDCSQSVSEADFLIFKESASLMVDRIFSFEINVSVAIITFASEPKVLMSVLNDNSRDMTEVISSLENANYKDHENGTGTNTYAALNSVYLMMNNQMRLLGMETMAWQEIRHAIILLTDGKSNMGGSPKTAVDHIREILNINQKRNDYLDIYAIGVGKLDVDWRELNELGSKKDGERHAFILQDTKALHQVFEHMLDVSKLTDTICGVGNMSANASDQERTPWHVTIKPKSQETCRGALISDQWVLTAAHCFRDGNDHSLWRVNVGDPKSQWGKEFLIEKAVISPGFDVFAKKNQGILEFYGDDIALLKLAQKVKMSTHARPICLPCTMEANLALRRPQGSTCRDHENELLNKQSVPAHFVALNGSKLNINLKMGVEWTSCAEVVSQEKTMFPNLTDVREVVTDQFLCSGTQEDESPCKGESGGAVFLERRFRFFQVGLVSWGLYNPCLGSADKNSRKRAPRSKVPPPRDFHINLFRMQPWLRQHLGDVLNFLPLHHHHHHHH"}, "[3]": {"target": "T3, human C2 H435A (human, UniProt P06681 21-752)", "T3 sequence": "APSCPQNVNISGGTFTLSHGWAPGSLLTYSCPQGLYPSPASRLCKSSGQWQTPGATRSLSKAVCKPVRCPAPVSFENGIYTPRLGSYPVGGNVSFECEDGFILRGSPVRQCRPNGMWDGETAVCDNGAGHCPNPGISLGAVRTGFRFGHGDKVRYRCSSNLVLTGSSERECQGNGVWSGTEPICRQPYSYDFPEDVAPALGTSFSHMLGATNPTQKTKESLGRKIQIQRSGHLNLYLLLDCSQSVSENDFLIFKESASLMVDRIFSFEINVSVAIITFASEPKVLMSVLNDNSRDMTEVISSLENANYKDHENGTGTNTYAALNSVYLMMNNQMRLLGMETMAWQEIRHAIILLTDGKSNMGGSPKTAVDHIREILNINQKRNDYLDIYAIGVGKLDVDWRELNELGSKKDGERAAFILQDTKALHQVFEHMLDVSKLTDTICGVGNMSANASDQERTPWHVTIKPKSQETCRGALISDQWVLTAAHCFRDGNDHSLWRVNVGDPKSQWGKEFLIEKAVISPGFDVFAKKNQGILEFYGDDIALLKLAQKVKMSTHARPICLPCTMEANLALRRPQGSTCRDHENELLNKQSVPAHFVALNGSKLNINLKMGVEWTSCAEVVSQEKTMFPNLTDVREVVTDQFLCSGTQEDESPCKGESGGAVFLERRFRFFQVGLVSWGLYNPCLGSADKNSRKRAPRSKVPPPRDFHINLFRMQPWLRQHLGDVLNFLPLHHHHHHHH"}, "[4]": {"target": "T4, human C2 G466A (human, UniProt P06681 21-752)", "T4 sequence": "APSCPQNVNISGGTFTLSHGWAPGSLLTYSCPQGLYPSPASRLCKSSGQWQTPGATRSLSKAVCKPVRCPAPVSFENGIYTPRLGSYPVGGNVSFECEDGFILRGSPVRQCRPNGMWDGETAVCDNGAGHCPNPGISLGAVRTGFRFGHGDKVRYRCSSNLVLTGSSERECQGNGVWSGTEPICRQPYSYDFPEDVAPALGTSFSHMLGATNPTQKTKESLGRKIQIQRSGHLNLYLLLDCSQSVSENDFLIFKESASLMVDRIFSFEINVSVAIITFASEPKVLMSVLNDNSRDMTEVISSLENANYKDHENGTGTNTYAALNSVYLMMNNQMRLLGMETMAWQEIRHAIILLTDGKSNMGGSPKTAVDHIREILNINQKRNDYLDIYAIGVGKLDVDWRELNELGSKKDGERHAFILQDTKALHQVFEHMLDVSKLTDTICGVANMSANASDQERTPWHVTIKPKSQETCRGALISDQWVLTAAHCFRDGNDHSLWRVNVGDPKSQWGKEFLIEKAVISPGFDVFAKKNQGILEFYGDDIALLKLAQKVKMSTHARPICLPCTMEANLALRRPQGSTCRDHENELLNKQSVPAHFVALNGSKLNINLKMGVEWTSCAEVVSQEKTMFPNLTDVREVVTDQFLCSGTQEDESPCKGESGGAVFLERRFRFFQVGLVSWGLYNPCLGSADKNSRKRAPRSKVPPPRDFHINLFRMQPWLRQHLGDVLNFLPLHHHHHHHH"}}}
{"binder": "RF16-242 (antibody, human IgG4 S228P, lambda, V domains shown, pH-dependent anti-C2 antibody from a phage display library) VH: EVQLLQSGAEVKKPGESLKISCKGSGYSFTSYWIGWVRQMPGKGLEWMGIIYPGDSDTRYSPSFQGQVTISADKSISTAYLQWSSLKASDTAMYYCARRGHYGDYFDYWGQGTLVTVSS VL: SYELTQPPSVSVSPGQTARITCSGDALPKKYAYWYHQKSGQAPVLVIYEDRRRPSEIPERFSGSSSGTMATLTITGAQVEDEGVYFCYSRDRAGNQRVFGGGTQLTVLG", "values": [{"measurement": "Kd", "setting": "[1]", "value": 7.2, "unit": "nM"}, {"measurement": "Kd", "setting": "[2]", "value": 14.8, "unit": "nM"}, {"measurement": "Kd", "setting": "[3]", "value": 62.5, "unit": "nM"}, {"measurement": "Kd", "setting": "[4]", "value": 24.9, "unit": "nM"}]}
